Assay results as given in article PMC12368060 (Communications Biology, 2025).
Square brackets hold non-standard residues; d marks the D form. Ends that are not written are not given here. * marks the point of attachment. FITC = O=C1OC2(c3ccc(O)cc3Oc3cc(O)ccc32)c2ccc(NC(=S)*)cc21; pS = N[C@@H](COP(=O)(O)O)C(=O)O; Ahx = NCCCCCC(=O)O

Experiments:
[1] = target: T1, GST-fused LC3B (UniProt Q9GZQ8 1-120); assay: SPR
[2] = target: T1, GST-fused LC3B; assay: microfluidic diffusional sizing

Binder | Kd [1] [µM] | koff [1] [s⁻¹] | kon [1] [M⁻¹ s⁻¹] | Kd [2] [µM] | stoichiometry N [2] | fold increase in binding affinity against pS177 alone [2] [fold] | fold increase in Kd against pS177 alone [2] [fold]
{FITC-Ahx}-NSSGSSEDSFVEIRMAE [FITC-Ahx OPTN LIR peptide 169-185 (WT)] | 63.5 | 0.0351 | 550 | 67.1 | 1 | – | –
{FITC-Ahx}-NSSGSSED[pS]WVEIRMAE [FITC-Ahx OPTN LIR peptide 169-185 (pS177 F178W)] | – | – | – | – | 1 | 7 | –
{FITC-Ahx}-NSSGSSEDEFVEIRMAE [FITC-Ahx OPTN LIR peptide 169-185 (S177E)] | – | – | – | 40.2 | 1 | – | –
{FITC-Ahx}-NSSGSSEDSWVEIRMAE [FITC-Ahx OPTN LIR peptide 169-185 (F178W)] | – | – | – | 19.1 | 1 | – | –
{FITC-Ahx}-NSSGSSED[pS]FVEIRAAE [FITC-Ahx OPTN LIR peptide 169-185 (pS177 M183A)] | 36.7 | – | – | – | 1 | – | –
{FITC-Ahx}-NSSGSSEDDFVEIRMAE [FITC-Ahx OPTN LIR peptide 169-185 (S177D)] | – | – | – | 36.7 | 1 | – | –
{FITC-Ahx}-NSSGSSED[pS]AVEIRMAE [FITC-Ahx OPTN LIR peptide 169-185 (pS177 F178A)] | > 100 | – | – | – | – | – | 7
{FITC-Ahx}-NSSGSSED[pS]FVEIRMAE [FITC-Ahx OPTN LIR peptide 169-185 (pS177)] | 21.2 | 0.377 | 17800 | 14.9 | 1 | – | –
